Here are results for 27 molecules from US20110118131A1 (published 2011).

Numbering of substitutions follows the chain as printed. In names and notes the source's numbering stands. Several values for one entry are separate records, joined by “and”; a condition that tells them apart may be missing. Identical values can stand only once.

One assay deals with biotinylated Ep-Cam (UniProt P16422). In words: DELFIA competition, negative control well, biotinylated Ep-Cam, plate-coated parental ING-1 IgG as competitor.
Assay [1] deals with T1, IL-1β (UniProt P01584 117-269).
T1 construct: Antigen of XPA23
Put plainly: Biacore, Fab periplasmic extract; -1 = no binding by the table's footnote. A general note: In SPR one partner is held on a chip, and binding of the other changes the refractive index at the surface.

Assay [2] has as its target IL-1β (UniProt P01584 117-269). Put plainly: Biacore kinetic titration, IL-1β amine coupled to CM5 chip, 25 C. The protocol:
In an exemplary method, an antigen such as IL-1β is amine coupled to a CM5 sensor chip. Each sample (e.g., from lowest to highest concentration) may be injected for 240 seconds at a flow rate of 30 µl/min at a selected temperature (e.g., 25° C.). Sample are allowed to dissociate for 30 seconds except the highest concentration which may be permitted 300 seconds to dissociate. The assay is run at 25° C.
Biaevaluation software (e.g., Biacore 2000 evaluation software) is used to calculate dissociation rates of individual samples and the relative amount of sample bound to each test surface. The data is fit to an appropriate kinetic model (e.g., the kinetic titration model).

For assay [3], the target named is T2, Ep-CAM (UniProt P16422 24-265).
T2 chain: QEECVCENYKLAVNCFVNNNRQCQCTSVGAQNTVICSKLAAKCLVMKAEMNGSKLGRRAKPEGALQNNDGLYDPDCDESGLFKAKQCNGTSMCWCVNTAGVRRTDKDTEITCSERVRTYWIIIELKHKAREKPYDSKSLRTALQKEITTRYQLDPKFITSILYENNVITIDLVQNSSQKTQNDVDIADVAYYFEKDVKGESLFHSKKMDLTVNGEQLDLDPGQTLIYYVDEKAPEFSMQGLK
In words: Biacore SPR; Fig. 15C.

Assay [4] has as its target T2, Ep-CAM. Put plainly: Biacore SPR; Fig. 15B.

On to negative control (wells E12-H12), for which, in the assay with biotinylated Ep-Cam, the Percentage of inhibition is -0.4% and 0.1% and 0.3%.

B1: XPA23 heavy chain G100P (Fab, V domains shown)
VH: EVQLLESGGGLVQPGGSLRLSCAASGFTFSKYFMFWVRQAPGKGLEWVSVISPSGGMTRYADSVKGRFTISRDNSKNTLYLQMNSLRAEDTAVYYCARVPYGGNSDYWGQGTLVTVSS
VL: DIQMTQSPSSVSASVGDRLTIICRASQDINRWLAWYQQTPGNAPKLLIHSATSLQSGVPSRFSGSGSGTDFTLTINSLQPEDFATYYCQQADSFPLTFGGGTKVEIK
notes: Fab, periplasmic extract; also called C5A G100P
For the molecule B1, the binding result with IL-1β [1] is given as “no binding”.

B2: XPA23 (IL-1 antibody) (antibody, V domains shown)
VH: B1 VH with P100G
VL: B1 VL
notes: also called cA5; C5A
Broadly, the Kd is the equilibrium constant for the complex coming apart. Turning to B2, binding with IL-1β [2] was put at a Kd of 46 nM.

B3: XPA23 heavy chain S30P (Fab, V domains shown)
VH: B1 VH with S30P, P100G
VL: B1 VL
notes: Fab, periplasmic extract; also called C5A S30P
As for B3, the binding result in the assay with IL-1β [1] was “no binding”.

B4: XPA23 heavy chain R59V (Fab, V domains shown)
VH: B1 VH with R59V, P100G
VL: B1 VL
notes: Fab, periplasmic extract; also called C5A R59V
With B4, the binding result with IL-1β [1] is reported as “no binding”.

B5: XPA23 heavy chain G102A (Fab, V domains shown)
VH: B1 VH with P100G, G102A
VL: B1 VL
notes: Fab, periplasmic extract; also called C5A G102A
Regarding B5, in the assay with IL-1β [1], the binding result is reported as “no binding”.

B6: XPA23 heavy chain S30V (Fab, V domains shown)
VH: B1 VH with S30V, P100G
VL: B1 VL
notes: Fab, periplasmic extract; also called C5A S30V
Regarding B6, the binding result with IL-1β [1] is given as “no binding”.

B7: XPA23 heavy chain R59I (Fab, V domains shown)
VH: B1 VH with R59I, P100G
VL: B1 VL
notes: Fab, periplasmic extract; also called C5A R59I
As to B7, the binding result with IL-1β [1] was “no binding”.

B8: XPA23 heavy chain Y101G (Fab, V domains shown)
VH: B1 VH with P100G, Y101G
VL: B1 VL
notes: Fab, periplasmic extract; also called C5A Y101G
On to B8, for which the binding result in the assay with IL-1β [1] is given as “no binding”.

B9: XPA23 heavy chain S52L (Fab, V domains shown)
VH: B1 VH with S52L, P100G
VL: B1 VL
notes: Fab, periplasmic extract; also called C5A S52L
As to B9, the binding result with IL-1β [1] is listed as “no binding”.

B10: XPA23 heavy chain Y32A (Fab, V domains shown)
VH: B1 VH with Y32A, P100G
VL: B1 VL
notes: Fab, periplasmic extract; also called C5A Y32A
With B10, the binding result with IL-1β [1] was “no binding”.

B11: XPA23 heavy chain K31T (Fab, V domains shown)
VH: B1 VH with K31T, P100G
VL: B1 VL
notes: Fab, periplasmic extract; also called C5A K31T
In the case of B11, in the assay with IL-1β [1], the binding result was “no binding”.

B12: XPA23 heavy chain G102P (Fab, V domains shown)
VH: B1 VH with P100G, G102P
VL: B1 VL
notes: Fab, periplasmic extract; also called C5A G102P
B12: the binding result in the assay with IL-1β [1] is listed as “no binding”.

B13: XPA23 heavy chain S52I (Fab, V domains shown)
VH: B1 VH with S52I, P100G
VL: B1 VL
notes: Fab, periplasmic extract; also called C5A S52I
On to B13, for which the binding result in the assay with IL-1β [1] is on record as “no binding”.

B14: XPA23 heavy chain M57P (Fab, V domains shown)
VH: B1 VH with M57P, P100G
VL: B1 VL
notes: Fab, periplasmic extract; also called C5A M57P
For the molecule B14, the binding result with IL-1β [1] is given as “no binding”.

B15: XPA23 heavy chain K31P (Fab, V domains shown)
VH: B1 VH with K31P, P100G
VL: B1 VL
notes: Fab, periplasmic extract; also called C5A K31P
As for B15, the binding result in the assay with IL-1β [1] is listed as “no binding”.

B16: XPA23 heavy chain V50P (Fab, V domains shown)
VH: B1 VH with V50P, P100G
VL: B1 VL
notes: Fab, periplasmic extract; also called C5A V50P
As to B16, the binding result in the assay with IL-1β [1] is recorded as “no binding”.

B17: XPA23 heavy chain I51P (Fab, V domains shown)
VH: B1 VH with I51P, P100G
VL: B1 VL
notes: Fab, periplasmic extract; also called C5A I51P
For the molecule B17, in the assay with IL-1β [1], the binding result is “no binding”.

B18: XPA23 heavy chain G102V (Fab, V domains shown)
VH: B1 VH with P100G, G102V
VL: B1 VL
notes: Fab, periplasmic extract; also called C5A G102V
As to B18, the binding result with IL-1β [1] is reported as “no binding”.

B19: modified XPA23 Y208L mutant (antibody, V domains shown)
VH: B1 VH with P100G, Y101L
VL: B1 VL
Molecule B19 gave a Kd in the assay with IL-1β [2] of 16.2 nM.

B20: XPA23 heavy chain G102L (Fab, V domains shown)
VH: B1 VH with P100G, G102L
VL: B1 VL
notes: Fab, periplasmic extract; also called C5A G102L
Take B20: the binding result with IL-1β [1] is given as “no binding”.

B21: XPA23 heavy chain V99P (Fab, V domains shown)
VH: B1 VH with V99P, P100G
VL: B1 VL
notes: Fab, periplasmic extract; also called C5A V99P
Consider B21, for which the binding result in the assay with IL-1β [1] was “no binding”.

B22: XPA23 heavy chain R59A (Fab, V domains shown)
VH: B1 VH with R59A, P100G
VL: B1 VL
notes: Fab, periplasmic extract; also called C5A R59A
Regarding B22, the binding result in the assay with IL-1β [1] is on record as “no binding”.

B23: XPA23 heavy chain V99L (Fab, V domains shown)
VH: B1 VH with V99L, P100G
VL: B1 VL
notes: Fab, periplasmic extract; also called C5A V99L
B23: the binding result with IL-1β [1] is on record as “no binding”.

B24: XPA23 heavy chain S105L (Fab, V domains shown)
VH: B1 VH with P100G, S105L
VL: B1 VL
notes: Fab, periplasmic extract; also called C5A S105L
As for B24, in the assay with IL-1β [1], the binding result was “no binding”.

B25: modified ING-1 IgG with a 102G substitution (antibody, V domains shown)
VH: QIQLVQSGPELKKPGETVKISCKASGYTFTKYGMNWVKQAPGKGLKWMGWINTYTEEPTYGDDFKGRFAFSLETSASTANLQINNLKSEDTATYFCARFGSGVDYWGQGTSVTVSS
VL: QIVMTQAAFSNPVTLGTSGSISCRSSKSLLHSNGITYLYWYLQKPGQSPQLLIYQMSNLASGVPDRFSSSGSGTDFTLRISRVEAEDVGVYYCAQNLELPRTFGGGTKLEMKR
Turning to B25, in the assay with Ep-CAM [3], the dissociation constant Kd was determined as 0.6 nM.

B26: modified ING-1 IgG with an A102F substitution (antibody, V domains shown)
VH: B25 VH with G102F
VL: B25 VL
Turning to B26, in the assay with Ep-CAM [4], binding was characterised by a dissociation constant (Kd) of 0.9 nM.
